Experimental data as given in paper PMC8395313, “Membrane Association Modes of Natural Anticancer Peptides: Mechanistic Details on Helicity, Orientation, and Surface Coverage” (International Journal of Molecular Sciences, 2021).
Ends that are not written are not given here.

Biological target: the molecule itself
Test: dynamic light scattering; free peptide without lipid; DLS at 20 °C in CD buffer (10 mM Na-phosphate, 100 mM Na2SO4, pH 7.0); the methods give 20 or 40 µM peptide for the DLS samples

B1: Temporin-La (peptide)
peptide: LLRHVVKILEKYL-NH2
notes: 13 residues; MW = 1622.6 as printed in the methods; also called Tempo-La; TEMPO-LA; source: synthetic peptide (NovoPro Bioscience Inc., Shanghai; purity >= 95%)
- binding result: binds
